The record followed here is patent publication US20130096058A1 (AstraZeneca / MedImmune, published 2013).

A value given as a limit tells only on which side of the number the result lay.

For experiment [1], the target named is T1, cyno TRAIL R2-Fc (cynomolgus monkey (Macaca fascicularis)).
T1 construct: The text prints 'cyno TRAIL R2' and 'cyno TRAIL R2-Fc' for the same ELISAs; also called cynomolgus TRAIL R2
Kind of experiment: competition ELISA: F4 mod 1 coated, cyno TRAIL R2-Fc.

In experiment [2] the target is T1, cyno TRAIL R2-Fc. Briefly: competition ELISA: plate coated with F4 mod 1, 0.75 nM cyno TRAIL R2-Fc, purified monomer titrated as competitor. Background: ELISA stands for enzyme-linked immunosorbent assay.
Experiment [3] deals with T1, cyno TRAIL R2-Fc. Briefly: competition ELISA: plate coated with F4 mod 1, cyno TRAIL R2-Fc, monomer titrated as competitor.
In experiment [4] the target is endogenous TRAIL R2 expressed on the cell surface (human, UniProt O14763 56-440). Briefly: cell-based or functional assay.

B1: F4 mod 1 (designed binder)
chain: AIEVKDVTDTTALITWAKPWVDPPPLWGCELAYGIKDVPGDRTTIGLQQKHTAYSIGNLKPDTEYEVSLICFDPYGLKSRPAKETFTTGGGTLGHHHHHHHH
notes: F4 with a D to G mutation two amino acids before the DE loop
The IC50 is the concentration at which inhibition is half-maximal. As to B1, the “fold difference in binding between F4 mod 1 and F4 mod 12” value in the experiment with cyno TRAIL R2-Fc [1] was no more than 2 fold. Also, the IC50 in the experiment with cyno TRAIL R2-Fc [2] and in the experiment with cyno TRAIL R2-Fc [3] was 34 nM each time.

B2: F4 mod 12 (designed binder)
chain: SQIEVKDVTDTTALITWAKPWVDPPPLWGCELTYGIKDVPGDRTTIGLQQKHNQYSIGNLKPDTEYEVSLICFDPYGLKSRPAKETFTTGLGTLGHHHHHHHH
notes: Germline-engineered F4 mod 1
B2: the “fold difference in binding between F4 mod 1 and F4 mod 12” value in the experiment with cyno TRAIL R2-Fc [1] is no more than 2 fold. The same molecule yielded a concentration for half-maximal inhibition (IC50) with cyno TRAIL R2-Fc [3] of 50 nM.

B3: A3 (1E11) (designed binder)
chain: SGGGGSAIEVKDVTDTTALITWAKPWVDPPPLWGCELAYGIKDVPGDRTTIDLQQKHTAYSIGNLKPDTEYEVSLICFDPYGAKSNPAKETFTTGGGGSGGGGSGGGGSAIEVKDVTDTTALITWAKPWVDPPPLWGCELAYGIKDVPGDRTTIDLQQKHTAYSIGNLKPDTEYEVSLICFDPYGAKSNPAKETFTTGGGGSGGGGSGGGGSAIEVKDVTDTTALITWAKPWVDPPPLWGCELAYGIKDVPGDRTTIDLQQKHTAYSIGNLKPDTEYEVSLICFDPYGAKSNPAKETFTTGGGGSGGGGSGGGGSAIEVKDVTDTTALITWAKPWVDPPPLWGCELAYGIKDVPGDRTTIDLQQKHTAYSIGNLKPDTEYEVSLICFDPYGAKSNPAKETFTTGGGGSGGGGSGTLGHHHHHHHH
As for B3, the “Maximum Inhibition % (H2122)” value in experiment [4] worked out at 91%.
